Data published in PMC10847431, “Evidence the Isc iron–sulfur cluster biogenesis machinery is the source of iron for [NiFe]-cofactor biosynthesis in Escherichia coli” (Scientific Reports, 2024).
Values joined by “and” are separate entries in the source; they are usually repeats but may differ in a detail not shown here. Equal values may be shown once. Values belong to the binder of their own block, whether it stands above or below them.

B1: StrepII-tagged HypC (natural protein, E. coli, UniProt P0AAM3 2-90, looked up)
chain: CIGVPGQIRTIDGNQAKVDVCGIQRDVDLTLVGSCDENGQPRVGQWVLVHVGFAMSVINEAEARDTLDALQNMFDVEPDVGALLYGEEK
modifications: mixed population: unmodified species and species with +26 Da, +28 Da (CO or formyl), +16 Da (oxidation) and +136 Da (proposed Fe(CN)2CO) modifications, all associated with or dependent on the N-terminal cysteine residue (Cys2)
notes: HypC, hydrogenase maturation factor of Escherichia coli; lacks M1 (formyl-methionine lost after translation), so that Cys2 is the N-terminal residue; deconvoluted mass with the StrepII tag 10,641.5 Da; also called HypCStrep; StrepII-HypC; source: purified anoxically (StrepTactin Sepharose, when required Q-Sepharose); not shown: StrepII, C-terminal, kept
B3: HypD (natural protein, E. coli, UniProt P24192 1-373, looked up)
chain: MRFVDEYRAPEQVMQLIEHLRERASHLSYTAERPLRIMEVCGGHTHAIFKFGLDQLLPENVEFIHGPGCPVCVLPMGRIDTCVEIASHPEVIFCTFGDAMRVPGKQGSLLQAKARGADVRIVYSPMDALKLAQENPTRKVVFFGLGFETTMPTTAITLQQAKARDVQNFYFFCQHITLIPTLRSLLEQPDNGIDAFLAPGHVSMVIGTDAYNFIASDFHRPLVVAGFEPLDLLQGVVMLVQQKIAAHSKVENQYRRVVPDAGNLLAQQAIADVFCVNGDSEWRGLGVIESSGVHLTPDYQRFDAEAHFRPAPQQVCDDPRARCGEVLTGKCKPHQCPLFGNTCNPQTAFGALMVSSEGACAAWYQYRQQESEA
notes: HypD, hydrogenase maturation factor of Escherichia coli; printed mass 41,363.4 Da without and 41,715 Da with the [4Fe-4S] cluster; Carries a [4Fe-4S] cluster in all isolated complexes; No tag is named for HypD; also called native HypD; source: co-purified anoxically with it (StrepTactin Sepharose, when required Q-Sepharose)

Legend:
HypD [1] = molecular target: B3; test: pull-down; StrepII-tagged HypC co-produced with HypD in E. coli strains with defects in iron metabolism; anoxic StrepTactin Sepharose affinity purification; SDS-PAGE with Coomassie staining and western blots with antisera against HypD and HypC; details: partners not purified
HypD [2] = molecular target: B3; test: native MS; anaerobically isolated StrepII-tagged HypC-HypD complexes, about 10 μM, 500 mM ammonium acetate pH 6.8, nano-ESI High-Mass Q-TOF II, collision energy 30 V (90 V for CID dissociation); complexes from DHP-D, ΔsufA, ΔiscU and ΔentC-ΔfeoB strains; details: both partners purified
StrepII-tagged HypC = molecular target: B1; test: as above; details: both partners purified

Binder: B1
binding result (HypD [1]): binds

binding result (HypD [2]): binds
B2: StrepII-tagged HypC(C2A) (natural protein, E. coli, UniProt P0AAM3 2-90, looked up)
chain: AIGVPGQIRTIDGNQAKVDVCGIQRDVDLTLVGSCDENGQPRVGQWVLVHVGFAMSVINEAEARDTLDALQNMFDVEPDVGALLYGEEK
notes: HypC of Escherichia coli with the exchange C2A (codon 2 TGC to GCG); single major species, deconvoluted mass 10,611 Da, without the modifications seen on native HypC; lacking M1 as native HypC; also called StrepII-HypCC2A; source: E. coli DHP-D (ΔhypD) carrying pT-hypDC(C2A)Strep, co-produced with HypD; purified anoxically (StrepTactin Sepharose); not shown: StrepII, C-terminal, kept

Binder: B3
stoichiometry N (StrepII-tagged HypC): 1 HypC:HypD
stoichiometry of a minor complex species (StrepII-tagged HypC): 2 HypC:HypD (2:1) and 1 HypC:HypD (2:2)
